Data: PMC11077437, “Scrutiny of chimeric antigen receptor activation by the extracellular domain: experience with single domain antibodies targeting multiple myeloma cells highlights the need for case-by-case optimization” (Frontiers in Immunology, 2024)

Legend:
[1] = target: T1, murine CS1 on muCS1pos 5T33vt cells (Mus musculus, 5T33vt myeloma cells, UniProt Q8BHK6); assay: flow cytometry on cells; VHH on muCS1pos 5T33vt cells (Supplementary Figure 2); conditions: one partner purified
T1 construct: CS1 (SLAMF7), murine, as expressed on 5T33vt cells; source: on murine CS1pos 5T33vt cells

[2] = target: T2, recombinant murine CS1 protein (CS1-(his)C) (Mus musculus, strain , UniProt Q8BHK6); assay: SPR; follow-up SPR on plate-coated muCS1 (Supplementary Figure 1); conditions: both partners purified
T2 construct: CS1 (SLAMF7), murine, the extracellular portion; also called muCS1; source: HEK293-E 253 cells, transiently transfected, purified from the supernatant (IMAC, SEC) by U Protein Express

[3] = target: T3, human CS1 on CS1pos OPM2 multiple myeloma cells (Homo sapiens, OPM2 myeloma cells, UniProt Q9NQ25); assay: flow cytometry on cells; purified VHH at 200 nM, 1 h at 4°C, on CS1pos OPM2 cells; detected by mouse anti-His IgG1 mAb and APC anti-mouse IgG1 mAb; ΔMFI against the non-targeting control VHH R3B23 at 200 nM; n=1; conditions: one partner purified
T3 construct: CS1 (SLAMF7, CD319), human, as expressed on OPM2 cells; also called cell-expressed CS1; huCS1; source: on CS1pos OPM2 cells (ATCC)

[4] = target: T4, recombinant human CS1 protein (CS1-(his)C) (Homo sapiens, UniProt Q9NQ25); assay: SPR; Biacore T200; recombinant CS1 amine-coupled on a CM5 chip; VHH 100 nM to 3.125 nM in HBS pH 7.4, 25°C; association 180 s, dissociation 300 s; fit '1:1 binding with drift and RI2'; n=1; conditions: both partners purified
T4 construct: CS1 (SLAMF7, CD319), human, the extracellular portion; also called huCS1; SLAMF7; source: HEK293-E 253 cells, transiently transfected, purified from the supernatant (IMAC, SEC) by U Protein Express

[5] = target: T5, VHH-53 CAR on 2D3 reporter T cells (llama | human); assay: flow cytometry on cells; 2D3 cells with a VHH-CAR incubated with biotinylated CS1 antigen, then PE-coupled streptavidin; conditions: one partner purified
T5 construct: as the VHH of m10; cloned by PstI/BstEII from pHEN6c; hinge region derived from human IgG4; transmembrane and intracellular co-stimulatory domain derived from human CD28; also called 2D3-53; VHH-CAR with VHH-53; source: 2D3 reporter T cells, lentivirally transduced, sorted, on cells

[6] = target: T6, VHH-29 CAR on 2D3 reporter T cells (llama | human); assay: as above; conditions: one partner purified
T6 construct: as the VHH of m7; cloned by PstI/BstEII from pHEN6c; hinge region derived from human IgG4; transmembrane and intracellular co-stimulatory domain derived from human CD28; also called 2D3-29; VHH-CAR with VHH-29; source: 2D3 reporter T cells, lentivirally transduced, sorted, on cells

[7] = target: T7, VHH-17 CAR on 2D3 reporter T cells (llama | human); assay: as above; conditions: one partner purified
T7 construct: as the VHH of m3; cloned by PstI/BstEII from pHEN6c; hinge region derived from human IgG4; transmembrane and intracellular co-stimulatory domain derived from human CD28; also called 2D3-17; VHH-CAR with VHH-17; source: 2D3 reporter T cells, lentivirally transduced, sorted, on cells

[8] = target: T8, VHH-63 CAR on 2D3 reporter T cells (llama | human); assay: as above; conditions: one partner purified
T8 construct: as the VHH of m14; cloned by PstI/BstEII from pHEN6c; hinge region derived from human IgG4; transmembrane and intracellular co-stimulatory domain derived from human CD28; also called 2D3-63; VHH-CAR with VHH-63; source: 2D3 reporter T cells, lentivirally transduced, sorted, on cells

[9] = target: T9, VHH-71 CAR on 2D3 reporter T cells (llama | human); assay: as above; conditions: one partner purified
T9 construct: as the VHH of m16; cloned by PstI/BstEII from pHEN6c; hinge region derived from human IgG4; transmembrane and intracellular co-stimulatory domain derived from human CD28; also called 2D3-71; VHH-CAR with VHH-71; source: 2D3 reporter T cells, lentivirally transduced, sorted, on cells

[10] = target: T10, VHH-57 CAR on 2D3 reporter T cells (llama | human); assay: as above; conditions: one partner purified
T10 construct: as the VHH of m12; cloned by PstI/BstEII from pHEN6c; hinge region derived from human IgG4; transmembrane and intracellular co-stimulatory domain derived from human CD28; also called 2D3-57; VHH-CAR with VHH-57; source: 2D3 reporter T cells, lentivirally transduced, sorted, on cells

[11] = target: T11, VHH-2 CAR on 2D3 reporter T cells (llama | human); assay: as above; conditions: one partner purified
T11 construct: as the VHH of m1; cloned by PstI/BstEII from pHEN6c; hinge region derived from human IgG4; transmembrane and intracellular co-stimulatory domain derived from human CD28; also called 2D3-2; VHH-CAR with VHH-2; source: 2D3 reporter T cells, lentivirally transduced, sorted, on cells

[12] = target: T12, VHH-61 CAR on 2D3 reporter T cells (llama | human); assay: as above; conditions: one partner purified
T12 construct: as the VHH of m13; cloned by PstI/BstEII from pHEN6c; hinge region derived from human IgG4; transmembrane and intracellular co-stimulatory domain derived from human CD28; also called 2D3-61; VHH-CAR with VHH-61; source: 2D3 reporter T cells, lentivirally transduced, sorted, on cells

[13] = target: T13, VHH-6 CAR on 2D3 reporter T cells (llama | human); assay: as above; conditions: one partner purified
T13 construct: as the VHH of m2; cloned by PstI/BstEII from pHEN6c; hinge region derived from human IgG4; transmembrane and intracellular co-stimulatory domain derived from human CD28; also called 2D3-6; VHH-CAR with VHH-6; source: 2D3 reporter T cells, lentivirally transduced, sorted, on cells

[14] = target: T14, VHH-73 CAR on 2D3 reporter T cells (llama | human); assay: as above; conditions: one partner purified
T14 construct: as the VHH of m17; cloned by PstI/BstEII from pHEN6c; hinge region derived from human IgG4; transmembrane and intracellular co-stimulatory domain derived from human CD28; also called 2D3-73; VHH-CAR with VHH-73; source: 2D3 reporter T cells, lentivirally transduced, sorted, on cells

T2 sequence (Q8BHK6 23-224): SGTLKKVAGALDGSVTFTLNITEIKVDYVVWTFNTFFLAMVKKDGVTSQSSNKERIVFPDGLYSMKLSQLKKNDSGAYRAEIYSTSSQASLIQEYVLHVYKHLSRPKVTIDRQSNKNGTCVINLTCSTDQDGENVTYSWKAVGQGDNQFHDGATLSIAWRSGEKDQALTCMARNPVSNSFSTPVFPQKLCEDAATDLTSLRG
T1 sequence (Q8BHK6 23-333): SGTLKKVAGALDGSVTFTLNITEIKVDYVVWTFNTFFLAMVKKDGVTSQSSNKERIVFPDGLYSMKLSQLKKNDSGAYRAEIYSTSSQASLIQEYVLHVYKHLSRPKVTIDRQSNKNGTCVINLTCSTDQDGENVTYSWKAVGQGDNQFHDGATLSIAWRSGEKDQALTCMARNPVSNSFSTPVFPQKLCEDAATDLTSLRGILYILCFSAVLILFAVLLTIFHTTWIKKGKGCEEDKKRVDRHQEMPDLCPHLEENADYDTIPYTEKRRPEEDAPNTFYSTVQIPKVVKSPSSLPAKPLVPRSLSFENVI
T13 sequence (heavy, as listed by the source): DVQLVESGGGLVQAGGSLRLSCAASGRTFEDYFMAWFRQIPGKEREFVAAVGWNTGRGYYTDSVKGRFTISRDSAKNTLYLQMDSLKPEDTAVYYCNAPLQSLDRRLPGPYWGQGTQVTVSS
T7 sequence (heavy, as listed by the source): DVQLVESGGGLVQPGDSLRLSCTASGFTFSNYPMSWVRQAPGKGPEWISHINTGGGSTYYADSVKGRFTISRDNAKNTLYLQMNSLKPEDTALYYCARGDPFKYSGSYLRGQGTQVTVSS
T11 sequence (heavy, as listed by the source): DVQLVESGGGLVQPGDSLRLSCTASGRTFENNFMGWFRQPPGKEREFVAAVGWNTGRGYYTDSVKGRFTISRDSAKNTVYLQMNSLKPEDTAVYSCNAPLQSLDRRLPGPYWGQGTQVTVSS

Row | binding result [1] | binding result [2] | binding result [3] | binding result [4] | binding result [5] | binding result [6] | binding result [7] | binding result [8] | binding result [9] | binding result [10] | binding result [11] | binding result [12] | binding result [13] | binding result [14] | Binder
1 | binds | binds | no binding (tested: 200 nM) | no binding (tested: 100 nM) | – | – | – | – | – | – | – | – | – | – | VHH-79 (VHH, source: E. coli WK6 periplasm, purified (IMAC, SEC); not shown: His6, C-terminal, kept) VHH: QVQLQESGGGLVQPGGSLRLSCAASGSIFSILAMAWYRQAPGKQRELVASITNGGSTNYADSVKGRFTISRDNDKNTVYLLMNSLKPEDTAVYYCNPRPMPWGTYDYWGQGTQVTVSS
2 | – | – | – | – | binds | binds | binds | binds | binds | binds | binds | binds | binds | binds | biotinylated recombinant human CS1 (CS1-(his)C-PEG4-biotin) (domain or fragment, UniProt Q9NQ25 23-226, looked up, PEG4-biotin, CS1 (SLAMF7, CD319), human, the extracellular portion, biotinylated variant; also called biotinylated CS1 antigen; biotinylated CS1 protein; source: custom-produced by U Protein Express) SGPVKELVGSVGGAVTFPLKSKVKQVDSIVWTFNTTPLVTIQPEGGTIIVTQNRNRERVDFPDGGYSLKLSKLKKNDSGIYYVGIYSSSLQQPSTQEYVLHVYEHLSKPKVTMGLQSNKNGTCVTNLTCCMEHGEEDVIYTWKALGQAANESHNGSILPISWRWGESDMTFICVARNPVSRNFSSPILARKLCEGAADDPDSSM
3 | binds | binds | no binding (tested: 200 nM) | no binding (tested: 100 nM) | – | – | – | – | – | – | – | – | – | – | VHH-78 (VHH, source: E. coli WK6 periplasm, purified (IMAC, SEC); not shown: His6, C-terminal, kept) VHH: QVQLQESGGGLVQPGGSLRLSCAASGSIFSILAMGWYRQAPGKQRELVASVTNGGSTNYADSVKGRFTISRDNAKNTVYLQMNSLKPEDTAVYYCNVRPYSDYDSWGHGTQVTVSS
